This note sets out measurements from publication PMC7618776, “Direct recruitment of Mis18 to interphase spindle pole bodies promotes CENP-A chromatin assembly” (Current biology : CB, 2023).

The experiment addresses T1, 6His-msfGFP-TEV-Mis18FL (S. pombe, UniProt Q9P802 1-194).
T1 construct: Mis18, S. pombe, full length (residues 1-194); Cloned into the vector pET His6 msfGFP TEV (9GFP, Addgene 48287); also called GFP-Mis18; 6His-GFP-Mis18FL; source: E. coli BL21 Gold, purified (HisTrap HP, SEC); not shown: msfGFP, N-terminal, kept
T1 sequence (looked up): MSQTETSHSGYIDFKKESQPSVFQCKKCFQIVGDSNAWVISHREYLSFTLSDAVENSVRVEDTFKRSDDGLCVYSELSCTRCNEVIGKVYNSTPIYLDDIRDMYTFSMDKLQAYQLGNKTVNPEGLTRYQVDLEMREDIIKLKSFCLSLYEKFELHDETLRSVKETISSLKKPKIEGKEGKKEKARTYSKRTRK
Briefly: pull-down; 6His-MBP-Sad1(2-167) or 6His-MBP on amylose resin mixed with candidate binding proteins, each protein at 5 μM; 20 mM HEPES pH 7.0, 150 mM NaCl, 1 mM TCEP, 0.01% Tween-20; 4°C 1 hr; Coomassie-stained SDS-PAGE. Conditions: both partners purified.

B1: 6His-MBP-Sad1(2-167) (domain or fragment, S. pombe, UniProt Q09825 2-167, looked up)
chain: FTNTPVGGKRERQNGAHPAWSTLGANSAQIHQNTADLASKMHKLRYTKIRSPPTRVSIESITPKQRFPAPNFEQAYHSNIRYEQEESDNEEFENVVKNGHEASTNVFYESDGDDEEFVNEEYENSIDEESDDEGYSLNEDTTATNASFRYPMNQRSTRKSQFYSSK
notes: Cloned into the vector pET-6His-MBP-TEV (9C, Addgene 48286) by LIC; also called MBP-Sad1-N; source: E. coli BL21-CodonPlus (DE3)-RIPL, purified (TALON resin); not shown: His6, N-terminal, kept; MBP, N-terminal, kept
Take B1: the binding result is “binds”.
